Laboratory results published in article PMC5618010 (Viruses, 2017).
No end group written: not given here.

Key:
Format in all cases: cell-based
HIV-1JR-FL [1] = test system: HIV-1JR-FL
HIV-1JR-FL [2] = test system: HIV-1JR-FL; remark: listed apart in the source
HIV-1JR-FL [3] = test system: HIV-1JR-FL; remark: listed apart in the source

Molecule | Infectivity 10 μg/mL: relative percent of HIV infectivity compared to WT HD6 (HIV-1JR-FL [1]) [%] | Infectivity 30 μg/mL: relative percent of HIV infectivity compared to WT HD6 (HIV-1JR-FL [1]) [%] | Attachment 10 μg/mL: relative percent of HIV attachment compared to WT HD6 (HIV-1JR-FL [2]) [%] | Attachment 30 μg/mL: relative percent of HIV attachment compared to WT HD6 (HIV-1JR-FL [2]) [%] | Late RT production compared to WT HD6 (HIV-1JR-FL [3]) | Infectivity 10 μg/mL: relative percent of HIV infectivity compared to WT HD5 (HIV-1JR-FL [1]) [%] | Infectivity 30μg/mL: relative percent of HIV infectivity compared to WT HD5 (HIV-1JR-FL [1]) [%] | Loss of HIV attachment-enhancing and infection-enhancing activities (HIV-1JR-FL [1]) | Attachment 10 μg/mL: relative percent of HIV attachment compared to WT HD5 (HIV-1JR-FL [2]) [%] | Attachment 30 μg/mL: relative percent of HIV attachment compared to WT HD5 (HIV-1JR-FL [2]) [%] | Reduction of ability to promote HIV attachment compared to WT HD5 (HIV-1JR-FL [2]) [%]
Ac-HD6: HD6 acetylated at the N-terminus (Ac-AFTCHCRRSCYSTEYSYGTCTVMGINHRFCCL; ends and bridges not checked; UniProt Q01524 69-100, looked up) | 58 ± 24 | 175 ± 43 | 57 ± 14 | 87 ± 19 | comparable |  |  |  |  |  | 
R28A-HD5: HD5 mutant R28A, chemically synthesized; cationicity (peptide, UniProt Q01523 20-94, looked up, variant R28A, Defensin-5) Defensin alpha 5: ESLQERADEATTQKQSGEDNQDLAISFAGNGLSALRTSGSQARATCYCRTGRCATRESLSGVCEISGRLYALCCR |  |  |  |  |  | 66 ± 5 | 52 ± 3 | about 50% | 54 ± 17 | 59 ± 19 | 41
L16A-HD5: HD5 mutant L16A, chemically synthesized; hydrophobicity (peptide, UniProt Q01523 20-94, looked up, variant L16A, Defensin-5) Defensin alpha 5: ESLQERADEATTQKQSGEDNQDLAISFAGNGLSALRTSGSQARATCYCRTGRCATRESASGVCEISGRLYRLCCR |  |  |  |  |  | 10 ± 3 | 30 ± 3 |  | 17 ± 5 | 27 ± 7 | 
Y27A-HD5: HD5 mutant Y27A, chemically synthesized; hydrophobicity (peptide, UniProt Q01523 20-94, looked up, variant Y27A, Defensin-5) Defensin alpha 5: ESLQERADEATTQKQSGEDNQDLAISFAGNGLSALRTSGSQARATCYCRTGRCATRESLSGVCEISGRLARLCCR |  |  |  |  |  | 28 ± 18 | 29 ± 9 |  | 19 ± 11 | 18 ± 9 | 
S15A-HD5: HD5 mutant S15A, chemically synthesized (peptide, UniProt Q01523 20-94, looked up, variant S15A, Defensin-5) Defensin alpha 5: ESLQERADEATTQKQSGEDNQDLAISFAGNGLSALRTSGSQARATCYCRTGRCATREALSGVCEISGRLYRLCCR |  |  |  |  |  | 166 ± 30 | 81 ± 11 |  | 118± 9 | 95 ± 16 | 
human α-defensin 5 (peptide, UniProt Q01523 20-94, looked up, Defensin-5) Defensin alpha 5: ESLQERADEATTQKQSGEDNQDLAISFAGNGLSALRTSGSQARATCYCRTGRCATRESLSGVCEISGRLYRLCCR |  |  |  |  |  | 100 ± 0 | 100 ± 0 |  | 100 ± 0 | 100 ± 0 | 
Y4A-HD5: HD5 mutant Y4A, chemically synthesized; hydrophobicity (peptide, UniProt Q01523 20-94, looked up, variant Y4A, Defensin-5) Defensin alpha 5: ESLQERADEATTQKQSGEDNQDLAISFAGNGLSALRTSGSQARATCACRTGRCATRESLSGVCEISGRLYRLCCR |  |  |  |  |  | 136 ± 42 | 75 ± 14 |  | 134 ± 26 | 106 ± 3 | 
